# B1: visfatin (recombinant) (natural protein)
# chain: MNPAAEAEFNILLATDSYKVTHYKQYPPNTSKVYSYFECREKKTENSKLRKVKYEETVFYGLQYILNKYLKGKVVTKEKIQEAKDVYKEHFQDDVFNEKGWNYILEKYDGHLPIEIKAVPEGFVIPRGNVLFTVENTDPECYWLTNWIETILVQSWYPITVATNSREQKKILAKYLLETSGNLDGLEYKLHDFGYRGVSSQETAGIGASAHLVNFKGTDTVAGLALIKKYYGTKDPVPGYSVPAAEHSTITAWGKDHEKDAFEHIVTQFSSVPVSVVSDSYDIYNACEKIWGEDLRHLIVSRSTQAPLIIRPDSGNPLDTVLKVLEILGKKFPVTENSKGYKLLPPYLRVIQGDGVDINTLQEIVEGMKQKMWSIENIAFGSGGGLLQKLTRDLLNCSFKCSYVVTNGLGINVFKDPVADPNKRSKKGRLSLHRTPAGNFVTLEEGKGDLEEYGQDLLHTVFKNGKVTKSYSFDEIRKNAQLNIELEAAHH
# What was measured:
# [1] = molecular target: T1, recombinant His-tagged insect-cell expressed CCR5, detergent-solubilised (UniProt P51681 1-352); assay: SPR; two binding site model, KD2 (second site)
# [2] = molecular target: T1, recombinant His-tagged insect-cell …; assay: SPR; 1:1 binding model
# [3] = molecular target: T1, recombinant His-tagged insect-cell …; assay: SPR; two binding site model, KD1
# T1 sequence (P51681 whole entry): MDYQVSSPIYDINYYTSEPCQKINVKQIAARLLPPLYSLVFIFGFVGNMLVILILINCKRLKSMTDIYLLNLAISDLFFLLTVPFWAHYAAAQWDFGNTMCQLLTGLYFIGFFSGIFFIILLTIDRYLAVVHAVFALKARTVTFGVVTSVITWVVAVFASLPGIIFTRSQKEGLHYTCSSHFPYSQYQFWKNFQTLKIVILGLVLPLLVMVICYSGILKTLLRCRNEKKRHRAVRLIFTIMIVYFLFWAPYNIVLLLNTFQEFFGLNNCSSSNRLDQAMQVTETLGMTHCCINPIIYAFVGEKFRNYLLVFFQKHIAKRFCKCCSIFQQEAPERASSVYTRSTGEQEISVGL
binder,measurement,setting,value
B1,Kd,[1],600 nM
same,Kd,[2],5000 nM
same,Kd,[3],2 nM

# — paper PMC3320877 (2012)
